These results are taken from patent publication US20170349669A1 (Hoffmann-La Roche, published 2017).

Assay [1] deals with T1, human Ang-2-RBD-Fc (human, UniProt O15123 275-496, limits assumed).
T1 construct: domain: RBD; Used as analyte in solution; The KD is called apparent; not shown: Fc part
T1 sequence (looked up): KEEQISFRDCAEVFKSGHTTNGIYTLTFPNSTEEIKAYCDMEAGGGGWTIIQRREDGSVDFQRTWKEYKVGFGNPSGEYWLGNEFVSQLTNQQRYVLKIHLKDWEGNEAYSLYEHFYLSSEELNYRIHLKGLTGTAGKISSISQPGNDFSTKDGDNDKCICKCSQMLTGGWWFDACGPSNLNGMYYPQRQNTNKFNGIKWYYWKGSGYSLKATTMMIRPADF
The experiment in a line: SPR Biacore T200, apparent KD, antibody captured via anti-human F(ab')2, Ang2-RBD-Fc as analyte. As for the experimental part:
(§1) Binding of indicated antibodies to human Ang-2-RBD-Fc was investigated by surface plasmon resonance using a BIACORE® T200 instrument (GE Healthcare). Around 8000 (RU) of goat anti human F(ab′)₂ (10 μg/ml anti human F(ab)′₂; Order Code: 28958325; GE Healthcare Bio-Sciences AB, Sweden) were coupled on a Series S CM5 chip (GE Healthcare BR-1005-30) at pH 5.0 by using an amine coupling kit supplied by the GE Healthcare. HBS-N (10 mM HEPES, 150 mM NaCl pH 7.4, GE Healthcare) was used as running buffer during the immobilization procedure. For the following kinetic characterization, sample and running buffer was PBS-T (10 mM phosphate buffered saline including 0.05% Tween20) at pH 7.4. The flow cell was set to 25° C.—and the sample block set to 12° C.—and primed with running buffer twice prior to kinetic characterization.
(§2) The bispecific antibody was captured by injecting a 5 nM solution for 25 sec at a flow of 5 μl/min. The association was measured by injection of human Ang2-RBD-Fc in various concentrations in solution for 120 sec at a flow of 30 μl/min starting with 100 nM in 1:3 serial dilutions. The dissociation phase was monitored for up to 180 sec and triggered by switching from the sample solution to running buffer. The surface was regenerated by 60 sec washing with a Glycine pH 2.1 solution at a flow rate of 30 μl/min. Bulk refractive index differences were corrected by subtracting the response obtained from a goat anti human F(ab′)₂ surface. Blank injections are also subtracted (=double referencing). For calculation of apparent KD the Langmuir 1:1 model was used.

The target in assay [2] is T2, human VEGFA-121-His (human, UniProt P15692-9 27-147).
T2 construct: Captured on an anti-His antibody surface; P15692 is the canonical VEGF-A entry, and the 121 isoform is one of its splice forms; also called VEFGA-121-His; not shown: His tag
T2 sequence (looked up): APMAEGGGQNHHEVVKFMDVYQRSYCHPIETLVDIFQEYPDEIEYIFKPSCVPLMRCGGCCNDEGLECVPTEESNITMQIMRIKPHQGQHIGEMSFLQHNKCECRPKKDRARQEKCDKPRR
The experiment in a line: SPR Biacore T200, VEGFA-121-His captured via anti-His, antibody as analyte, 1:1 Langmuir. As for the experimental part:
as §1, with “VEGFA-121” for “Ang-2-RBD-Fc”, “10000” for “8000”, “of” for “of goat”, “His antibody (1” for “human F(ab′)₂ (10”, “His antibody;” for “human F(ab)′₂;”, “28995056;” for “28958325;”
(§3) VEFGA-121-His was captured by injecting a 0.5 μg/ml solution for 30 sec at a flow of 5 μl/min. The association was measured by injection of the indicated antibodies in various concentrations in solution for 180 sec at a flow of 30 μl/min starting with 1000 nM in 1:3 serial dilutions. The dissociation phase was monitored for up to 600 sec and triggered by switching from the sample solution to running buffer. The surface was regenerated by 60 sec washing with a Glycine pH 1.5 solution at a flow rate of 30 μl/min. Bulk refractive index differences were corrected by subtracting the response obtained from a anti His antibody surface. Blank injections are also subtracted (=double referencing). For calculation of KD and other kinetic parameters the Langmuir 1:1 model was used.

In assay [3] the target is T1, human Ang-2-RBD-Fc. Description: SPR Biacore T200, apparent KD, antibody captured via anti-human F(ab')2, Ang2-RBD-Fc as analyte. As for the experimental part:
as §1, §2
The source holds these as a separate data set. In general terms: In SPR one partner is held on a chip, and binding of the other changes the refractive index at the surface.

For assay [4], the target named is T2, human VEGFA-121-His. Description: SPR Biacore T200, VEGFA-121-His captured via anti-His, antibody as analyte, 1:1 Langmuir. As for the experimental part:
as §1, with “VEGFA-121” for “Ang-2-RBD-Fc”, “10000” for “8000”, “of” for “of goat”, “His antibody (1” for “human F(ab′)₂ (10”, “His antibody;” for “human F(ab)′₂;”, “28995056;” for “28958325;”
as §3
The source holds these as a separate data set.

Like-named read-outs stand apart in the source and are kept apart here.

B1: Ang2VEGF_280 (bispecific antibody, human IgG1, kappa)
heavy 1: not shown
light 1: EVQLVESGGGLVQPGGSLRLSCAASGYTFTNYGMNWVRQAPGKGLEWVGWINTYTGEPTYAADFKRRFTFSLDTSKSTAYLQMNSLRAEDTAVYYCAKYPHYYGSSHWYFDVWGQGTLVTVSSASTKGPSVFPLAPSSKSTSGGTAALGCLVKDYFPEPVTVSWNSGALTSGVHTFPAVLQSSGLYSLSSVVTVPSSSLGTQTYICNVNHKPSNTKVDKKVEPKSC
heavy 2: not shown
light 2: QPGLTQPPSVSVAPGQTARITCGGNNIGSKSVHWYQQKPGQAPVLVVYDDSDRPSGIPERFSGSNSGNTATLTISRVEAGDEADYYCQVWDSSSDHYVFGTGTKVTVLRTVAAPSVFIFPPSDKKLKSGTASVVCLLNNFYPREAKVQWKVDNALQSGNSQESVTEQDSKDSTYSLSSTLTLSKADYEKHKVYACEVTHQGLSSPVTKSFNRGEC
notes: Bivalent CrossMAb-Fab with four different chains; also called Ang2VEGF-0280
B1: the Kd with human Ang-2-RBD-Fc [1] is 3 nM; in the assay with human VEGFA-121-His [2] it was 7 nM; in the assay with human Ang-2-RBD-Fc [3] it was 3 nM; in the assay with human VEGFA-121-His [4] it was 7 nM.
